Results on 1 protein are retold here after publication PMC6857237, “Design and structural characterisation of olfactomedin-1 variants as tools for functional studies” (BMC Molecular and Cell Biology, 2019).

The data set deals with the molecule itself. Briefly: SEC-MALS; analytical Superdex200 Increase 10/300, room temperature, SEC buffer (150 mM NaCl, 2 mM CaCl2, 20 mM HEPES pH 7.5), 0.5 mL/min; aldolase as calibration standard.

B1: Olfm1^coil-Olf (olfactomedin-1 part of the coiled coil plus Olfactomedin domain, residues 212–478), disulfide-linked dimer (domain or fragment, mouse (Mus musculus))
chain: GSSNLEERLRACMQKLACGKLTGISDPVTVKTSGSRFGSWMTDPLAPEGDNRVWYMDGYHNNRFVREYKSMVDFMNTDNFTSHRLPHPWSGTGQVVYNGSIYFNKFQSHIIIRFDLKTEAILKTRSLDYAGYNNMYHYAWGGHSDIDLMVDENGLWAVYATNQNAGNIVISKLDPVSLQILQTWNTSYPKRSAGEAFIICGTLYVTNGYSGGTKVHYAYQTNASTYEYIDIPFQNKYSHISMLDYNPKDRALYAWNNGHQTLYNVTLFHAAA
modifications: N-linked glycans (8 per dimer, GntI-/- cells); inter-chain disulfide Cys221-Cys221; for crystallisation deglycosylated with Endo-H
notes: N-terminal residues left by the restriction site in the mature protein; Olfactomedin-1 (Olfm1), mouse, BMZ isoform cDNA as template, residues 212-478 (UNIPROT numbering); C-terminal VIRSDEL not included; includes Cys221; Only about a third of the expressed sample formed the disulfide-linked dimer; the dimer fraction was isolated by SEC and used; Secreted with a cystatin signal peptide (not in the …)
For the protein B1, the “stoichiometry N” value came to 2.
